Drawing on CN112341541A (INST FOR VIRAL DISEASE CONTROL AND PREVENTION CHINESE …, dated 2021), this text covers Kd for one molecule.

A value given as a limit tells only on which side of the number the result lay.

The assay concerns the target T1, 新型冠状病毒S1蛋白 (纯化) (SARS-CoV-2, UniProt P0DTC2 14-685).
T1 construct: domain: S1
The assay can be described thus: SPR, BIAcore 8000, purified S1 protein coupled to the chip, 1:1 binding fit.

B1: 人源抗新冠病毒中和性抗体nCoV-163 全抗体IgG (antibody, V domains shown)
VH: EVQLVESGGGLVQPGGSLRLSCEASEIIVNRNYMNWVRQAPGKGLEWVSIIYPGGSTFYADSVKGRFTISRDNSKNTMYLQMNSLRAEDTAVYYCARSYGDFYVDFWGQGTLVTVSS
VL: EIVLTQSPVTLSLSPGERATLSCRASQSVSSSYLAWYQQKPGQAPRLLIYGASSRATGIPDRFSGSGSGTDFTLTISRLEPEDFAVYYCQQHGRTFGQGTKVEIKR
notes: also called nCoV-163号抗体
The Kd is the constant that tells how readily two partners part at equilibrium. For B1, the Kd is < 4.88 pM.
